Source: patent US20210070885A1 (published 2021)

Tests used:
HER2m1-Fc = HER2m1-Fc (UniProt P04626 23-652); test: ELISA
HER2m2-Fc = HER2m2-Fc (UniProt P04626 23-652); test: ELISA

B1: Tmab-CLC5 (antibody, V domains shown)
VH: not shown
VL: DIQMTQSPSSLSASVGDRVTITCKASQDVSIGVAWYQQKPGKAPKLLIYSASYRYTGVPSRFSGSGSGTDFTLTISSLQPEDFATYYCQQYYIYPYTFGQGTKVEIKR
HER2m1-Fc
  EC50: 0.616 µg/mL

B2: Tmab-CLC6 (antibody, V domains shown)
VH: not shown
VL: DIQMTQSPSSLSASVGDRVTITCKASQDVSIGVAWYQQKPGKAPKLLIYSASYRYTGVPSRFSGSGSGTDFTLTISSLQPEDFATYYCQQYYITPYTFGQGTKVEIKR
HER2m1-Fc
  EC50: 1.1 µg/mL

B3: Pmab-CLC2 (antibody, V domains shown)
VH: EVQLVESGGGLVQPGGSLRLSCAASGFTFTDYTMDWVRQAPGKGLEWVADVNPNSGGSIYNQRFKGRFTLSVDRSKNTLYLQMNSLRAEDTAVYYCARNLGPSFYFDYWGQGTLVTVSS
VL: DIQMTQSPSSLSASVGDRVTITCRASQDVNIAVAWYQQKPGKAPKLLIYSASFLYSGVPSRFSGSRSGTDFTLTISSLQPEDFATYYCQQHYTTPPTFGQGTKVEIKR
HER2m2-Fc
  EC50: 0.598 µg/mL

B4: Pmab-CLC6 (antibody, V domains shown)
VH: EVQLVESGGGLVQPGGSLRLSCAASGFTFTDYTMDWVRQAPGKGLEWVADVNPNSGGSIYNQRFKGRFTLSVDRSKNTLYLQMNSLRAEDTAVYYCARNLGPSFYFDYWGQGTLVTVSS
VL: DIQMTQSPSSLSASVGDRVTITCKASQDVSIGVAWYQQKPGKAPKLLIYSASYRYTGVPSRFSGSGSGTDFTLTISSLQPEDFATYYCQQYYITPYTFGQGTKVEIKR
HER2m2-Fc
  EC50: 0.393 µg/mL

B5: Pmab-CLC3 (antibody, V domains shown)
VH: EVQLVESGGGLVQPGGSLRLSCAASGFTFTDYTMDWVRQAPGKGLEWVADVNPNSGGSIYNQRFKGRFTLSVDRSKNTLYLQMNSLRAEDTAVYYCARNLGPSFYFDYWGQGTLVTVSS
VL: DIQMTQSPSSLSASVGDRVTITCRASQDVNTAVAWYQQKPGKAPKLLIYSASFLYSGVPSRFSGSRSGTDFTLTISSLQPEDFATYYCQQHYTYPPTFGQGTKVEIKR
HER2m2-Fc
  EC50: 0.49 µg/mL

B6: Pmab-CLC4 (antibody, V domains shown)
VH: EVQLVESGGGLVQPGGSLRLSCAASGFTFTDYTMDWVRQAPGKGLEWVADVNPNSGGSIYNQRFKGRFTLSVDRSKNTLYLQMNSLRAEDTAVYYCARNLGPSFYFDYWGQGTLVTVSS
VL: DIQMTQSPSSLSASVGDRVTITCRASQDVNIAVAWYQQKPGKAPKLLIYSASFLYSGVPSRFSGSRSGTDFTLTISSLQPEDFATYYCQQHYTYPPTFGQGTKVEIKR
HER2m2-Fc
  EC50: 0.479 µg/mL
